Experimental data from US20170114338.

“Anthrax lethal factor (Product #169, List Biological Laboratories, Inc)” was tested, and the Peak area Average, 2 hour digest, LF 5 pg/ml plasma (LBL 10081) was 9150 peak area, the Peak area Average, 2 hour digest, LF 10 pg/ml plasma (LBL 10081) was 10300 peak area and the Peak area Average, 2 hour digest, LF 20 pg/ml plasma (LBL 10081) was 15900 peak area. For the same substance, the Peak area Average, 2 hour digest, LF 50 pg/ml plasma (LBL 10081) was 33700 peak area, the Peak area Average, 3.5 hour digest, LF 5 pg/ml plasma (LBL 10081) was 12300 peak area and the Peak area Average, 3.5 hour digest, LF 10 pg/ml plasma (LBL 10081) was 15900 peak area. It also gave a Peak area Average, 3.5 hour digest, LF 20 pg/ml plasma (LBL 10081) of 24200 peak area, a Peak area Average, 3.5 hour digest, LF 50 pg/ml plasma (LBL 10081) of 49100 peak area and a Peak area Average, 5 hour digest, LF 5 pg/ml plasma (LBL 10081) of 15000 peak area. It also gave a Peak area Average, 5 hour digest, LF 10 pg/ml plasma (LBL 10081) of 22300 peak area, a Peak area Average, 5 hour digest, LF 20 pg/ml plasma (LBL 10081) of 32900 peak area and a Peak area Average, 5 hour digest, LF 50 pg/ml plasma (LBL 10081) of 66700 peak area. The Peak area Average, overnight digest (RT), LF 5 pg/ml plasma (LBL 10081) was 26900 peak area, the Peak area Average, overnight digest (RT), LF 10 pg/ml plasma (LBL 10081) was 36200 peak area and the Peak area Average, overnight digest (RT), LF 20 pg/ml plasma (LBL 10081) was 57900 peak area. It also gave a Peak area Average, overnight digest (RT), LF 50 pg/ml plasma (LBL 10081) of 130000 peak area, a Peak area, 2 hour digest, LF 5 pg/ml plasma, rep 1 (LBL 10081) of 9410 peak area and a Peak area, 2 hour digest, LF 5 pg/ml plasma, rep 2 (LBL 10081) of 8890 peak area. It also gave a Peak area, 2 hour digest, LF 10 pg/ml plasma, rep 1 (LBL 10081) of 10700 peak area, a Peak area, 2 hour digest, LF 10 pg/ml plasma, rep 2 (LBL 10081) of 9970 peak area and a Peak area, 2 hour digest, LF 20 pg/ml plasma, rep 1 (LBL 10081) of 16900 peak area. The Peak area, 2 hour digest, LF 20 pg/ml plasma, rep 2 (LBL 10081) was 14900 peak area, the Peak area, 2 hour digest, LF 50 pg/ml plasma, rep 1 (LBL 10081) was 33700 peak area and the Peak area, 2 hour digest, LF 50 pg/ml plasma, rep 2 (LBL 10081) was 33700 peak area. The Peak area, 3.5 hour digest, LF 5 pg/ml plasma, rep 1 (LBL 10081) was 11500 peak area, the Peak area, 3.5 hour digest, LF 5 pg/ml plasma, rep 2 (LBL 10081) was 13200 peak area and the Peak area, 3.5 hour digest, LF 10 pg/ml plasma, rep 1 (LBL 10081) was 16500 peak area. The Peak area, 3.5 hour digest, LF 10 pg/ml plasma, rep 2 (LBL 10081) was 15300 peak area, the Peak area, 3.5 hour digest, LF 20 pg/ml plasma, rep 1 (LBL 10081) was 24000 peak area and the Peak area, 3.5 hour digest, LF 20 pg/ml plasma, rep 2 (LBL 10081) was 24300 peak area. It also gave a Peak area, 3.5 hour digest, LF 50 pg/ml plasma, rep 1 (LBL 10081) of 49700 peak area, a Peak area, 3.5 hour digest, LF 50 pg/ml plasma, rep 2 (LBL 10081) of 48400 peak area and a Peak area, 5 hour digest, LF 5 pg/ml plasma, rep 1 (LBL 10081) of 14800 peak area. The Peak area, 5 hour digest, LF 5 pg/ml plasma, rep 2 (LBL 10081) was 15100 peak area, the Peak area, 5 hour digest, LF 10 pg/ml plasma, rep 1 (LBL 10081) was 22200 peak area and the Peak area, 5 hour digest, LF 10 pg/ml plasma, rep 2 (LBL 10081) was 22400 peak area. For the same substance, the Peak area, 5 hour digest, LF 20 pg/ml plasma, rep 1 (LBL 10081) was 31600 peak area, the Peak area, 5 hour digest, LF 20 pg/ml plasma, rep 2 (LBL 10081) was 34200 peak area and the Peak area, 5 hour digest, LF 50 pg/ml plasma, rep 1 (LBL 10081) was 67200 peak area. For the same substance, the Peak area, 5 hour digest, LF 50 pg/ml plasma, rep 2 (LBL 10081) was 66100 peak area, the Peak area, overnight digest (RT), LF 5 pg/ml plasma, rep 1 (LBL 10081) was 28500 peak area and the Peak area, overnight digest (RT), LF 5 pg/ml plasma, rep 2 (LBL 10081) was 25300 peak area. For the same substance, the Peak area, overnight digest (RT), LF 10 pg/ml plasma, rep 1 (LBL 10081) was 36500 peak area, the Peak area, overnight digest (RT), LF 10 pg/ml plasma, rep 2 (LBL 10081) was 36000 peak area and the Peak area, overnight digest (RT), LF 20 pg/ml plasma, rep 1 (LBL 10081) was 58200 peak area. The Peak area, overnight digest (RT), LF 20 pg/ml plasma, rep 2 (LBL 10081) was 57600 peak area, the Peak area, overnight digest (RT), LF 50 pg/ml plasma, rep 1 (LBL 10081) was 136000 peak area and the Peak area, overnight digest (RT), LF 50 pg/ml plasma, rep 2 (LBL 10081) was 124000 peak area. The Slope (Peak Area/pg LF), 2 hr digest (Peak Area/pg LF) (LBL 10081) was 553, the Slope (Peak Area/pg LF), 3.5 hr digest (Peak Area/pg LF) (LBL 10081) was 811 and the Slope (Peak Area/pg LF), 5 hr digest (Peak Area/pg LF) (LBL 10081) was 1130. It also gave a Slope (Peak Area/pg LF), Overnight digest (RT) (Peak Area/pg LF) (LBL 10081) of 2280, a Substrate RFUs after 5 hrs digest, LF 10 pg/ml in 1:10 diluted plasma (LBL 10081) of 140 RFU and a Substrate RFUs after 5 hrs digest, LF 20 pg/ml in 1:10 diluted plasma (LBL 10081) of 137 RFU. The Substrate RFUs after 5 hrs digest, LF 50 pg/ml in 1:10 diluted plasma (LBL 10081) was 137 RFU, the Substrate RFUs after 5 hrs digest, LF 100 pg/ml in 1:10 diluted plasma (LBL 10081) was 141 RFU and the Substrate RFUs after 5 hrs digest, LF 200 pg/ml in 1:10 diluted plasma (LBL 10081) was 155 RFU. It also gave a Substrate RFUs after 5 hrs digest, LF 500 pg/ml in 1:10 diluted plasma (LBL 10081) of 190 RFU, a Substrate RFUs after 5 hrs digest, LF 1000 pg/ml in 1:10 diluted plasma (LBL 10081) of 256 RFU and a Substrate RFUs after 24 hrs digest, LF 10 pg/ml in 1:10 diluted plasma (LBL 10081) of 147 RFU. The Substrate RFUs after 24 hrs digest, LF 20 pg/ml in 1:10 diluted plasma (LBL 10081) was 149 RFU, the Substrate RFUs after 24 hrs digest, LF 50 pg/ml in 1:10 diluted plasma (LBL 10081) was 152 RFU and the Substrate RFUs after 24 hrs digest, LF 100 pg/ml in 1:10 diluted plasma (LBL 10081) was 161 RFU. For the same substance, the Substrate RFUs after 24 hrs digest, LF 200 pg/ml in 1:10 diluted plasma (LBL 10081) was 186 RFU, the Substrate RFUs after 24 hrs digest, LF 500 pg/ml in 1:10 diluted plasma (LBL 10081) was 248 RFU and the Substrate RFUs after 24 hrs digest, LF 1000 pg/ml in 1:10 diluted plasma (LBL 10081) was 354 RFU. It also gave a Substrate RFUs, 1 hour, LF 10 pg/ml (LBL 10081) of 89 RFU, a Substrate RFUs, 1 hour, LF 20 pg/ml (LBL 10081) of 87 RFU and a Substrate RFUs, 1 hour, LF 50 pg/ml (LBL 10081) of 88 RFU. It also gave a Substrate RFUs, 1 hour, LF 100 pg/ml (LBL 10081) of 88 RFU, a Substrate RFUs, 1 hour, LF 200 pg/ml (LBL 10081) of 92 RFU and a Substrate RFUs, 1 hour, LF 500 pg/ml (LBL 10081) of 97 RFU. The Substrate RFUs, 1 hour, LF 1000 pg/ml (LBL 10081) was 114 RFU, the Substrate RFUs, 2 hours, LF 10 pg/ml (LBL 10081) was 94 RFU and the Substrate RFUs, 2 hours, LF 20 pg/ml (LBL 10081) was 93 RFU. The Substrate RFUs, 2 hours, LF 50 pg/ml (LBL 10081) was 95 RFU, the Substrate RFUs, 2 hours, LF 100 pg/ml (LBL 10081) was 96 RFU and the Substrate RFUs, 2 hours, LF 200 pg/ml (LBL 10081) was 101 RFU. It also gave a Substrate RFUs, 2 hours, LF 500 pg/ml (LBL 10081) of 116 RFU, a Substrate RFUs, 2 hours, LF 1000 pg/ml (LBL 10081) of 148 RFU and a Substrate RFUs, 3 hours, LF 10 pg/ml (LBL 10081) of 98 RFU. It also gave a Substrate RFUs, 3 hours, LF 20 pg/ml (LBL 10081) of 99 RFU, a Substrate RFUs, 3 hours, LF 50 pg/ml (LBL 10081) of 100 RFU and a Substrate RFUs, 3 hours, LF 100 pg/ml (LBL 10081) of 103 RFU. It also gave a Substrate RFUs, 3 hours, LF 200 pg/ml (LBL 10081) of 111 RFU, a Substrate RFUs, 3 hours, LF 500 pg/ml (LBL 10081) of 131 RFU and a Substrate RFUs, 3 hours, LF 1000 pg/ml (LBL 10081) of 177 RFU. It also gave a Substrate RFUs, 4 hours, LF 10 pg/ml (LBL 10081) of 100 RFU, a Substrate RFUs, 4 hours, LF 20 pg/ml (LBL 10081) of 99 RFU and a Substrate RFUs, 4 hours, LF 50 pg/ml (LBL 10081) of 102 RFU. It also gave a Substrate RFUs, 4 hours, LF 100 pg/ml (LBL 10081) of 105 RFU, a Substrate RFUs, 4 hours, LF 200 pg/ml (LBL 10081) of 115 RFU and a Substrate RFUs, 4 hours, LF 500 pg/ml (LBL 10081) of 142 RFU. The Substrate RFUs, 4 hours, LF 1000 pg/ml (LBL 10081) was 202 RFU, the Substrate RFUs, 5 hours, LF 10 pg/ml (LBL 10081) was 103 RFU and the Substrate RFUs, 5 hours, LF 20 pg/ml (LBL 10081) was 102 RFU. For the same substance, the Substrate RFUs, 5 hours, LF 50 pg/ml (LBL 10081) was 106 RFU, the Substrate RFUs, 5 hours, LF 100 pg/ml (LBL 10081) was 111 RFU and the Substrate RFUs, 5 hours, LF 200 pg/ml (LBL 10081) was 125 RFU. It also gave a Substrate RFUs, 5 hours, LF 500 pg/ml (LBL 10081) of 157 RFU, a Substrate RFUs, 5 hours, LF 1000 pg/ml (LBL 10081) of 224 RFU and a Substrate RFUs after 5 hrs digest, LF 10 pg/ml in 1:10 diluted plasma (LBL 10097) of 224 RFU. It also gave a Substrate RFUs after 5 hrs digest, LF 20 pg/ml in 1:10 diluted plasma (LBL 10097) of 222 RFU, a Substrate RFUs after 5 hrs digest, LF 50 pg/ml in 1:10 diluted plasma (LBL 10097) of 249 RFU and a Substrate RFUs after 5 hrs digest, LF 100 pg/ml in 1:10 diluted plasma (LBL 10097) of 242 RFU. For the same substance, the Substrate RFUs after 5 hrs digest, LF 200 pg/ml in 1:10 diluted plasma (LBL 10097) was 256 RFU, the Substrate RFUs after 5 hrs digest, LF 500 pg/ml in 1:10 diluted plasma (LBL 10097) was 301 RFU and the Substrate RFUs after 5 hrs digest, LF 1000 pg/ml in 1:10 diluted plasma (LBL 10097) was 399 RFU. The Substrate RFUs after 24 hrs digest, LF 10 pg/ml in 1:10 diluted plasma (LBL 10097) was 227 RFU, the Substrate RFUs after 24 hrs digest, LF 20 pg/ml in 1:10 diluted plasma (LBL 10097) was 223 RFU and the Substrate RFUs after 24 hrs digest, LF 50 pg/ml in 1:10 diluted plasma (LBL 10097) was 245 RFU. It also gave a Substrate RFUs after 24 hrs digest, LF 100 pg/ml in 1:10 diluted plasma (LBL 10097) of 258 RFU, a Substrate RFUs after 24 hrs digest, LF 200 pg/ml in 1:10 diluted plasma (LBL 10097) of 286 RFU and a Substrate RFUs after 24 hrs digest, LF 500 pg/ml in 1:10 diluted plasma (LBL 10097) of 379 RFU. It also gave a Substrate RFUs after 24 hrs digest, LF 1000 pg/ml in 1:10 diluted plasma (LBL 10097) of 559 RFU.
